± gives the standard deviation of the averaged measurements.
Key:
[1] = tested on: Saccharomyces cerevisiae; assay: protein stability index of tFT-peptide fusion (C-terminal peptide) (PSI (0-1 scale)); higher = more stable (slower turnover); settings: genetic background: wild type; temperature: 30 C
[2] = tested on: Saccharomyces cerevisiae; assay: as above
Description: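 MPS profiling in S. cerevisiae of the tFT-X12 degron library: putative degron peptides plus stable controls, 12 aa, fused to the C-terminus of a sfGFP-mCherry timer. Cells are FACS-sorted into 8 mCherry/sfGFP bins and deep-sequenced. PSI runs from 0 (unstable) to 1 (stable). Backgrounds are wild type, das1Δ and doa10Δ at 30 °C, and wild type, das1Δ, cdc34-1 and cdc53-1 at 37 °C; 2-3 technical replicates each.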

[3] = genetic background: cdc34-1, temperature: 37 C
[4] = genetic background: cdc53-1, temperature: 37 C
[5] = genetic background: das1 deletion, temperature: 30 C
[6] = genetic background: das1 deletion, temperature: 37 C
[7] = genetic background: doa10 deletion, temperature: 30 C
[8] = genetic background: wild type, temperature: 30 C
[9] = genetic background: wild type, temperature: 37 C
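Further: PSI is a weighted mean of sequencing reads over stability bins, variants kept only with over 10 reads, mCherry proximal and sfGFP distal, peptide attached via GGGS linker.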

Sequence	protein stability index [1]	protein stability index [2, 3]	protein stability index [2, 4]	protein stability index [2, 5]	protein stability index [2, 6]	protein stability index [2, 7]	protein stability index [2, 8]	protein stability index [2, 9]
WWGIVIVGGLGC	0.489 ± 0.051	0.526 ± 0.0069	0.566 ± 0.019	0.423 ± 0.019	0.5691 ± 0.00075	0.384 ± 0.02	0.404 ± 0.011	0.564 ± 0.024
YAFTCFLLVVAP	0.237 ± 0.013	0.172 ± 0.0073	0.23 ± 0.011	0.167 ± 0.021	0.302 ± 0.011	0.1642 ± 0.0014	0.16 ± 0.015	0.259 ± 0.022
YFFGWSVSLLIL	0.184 ± 0.019	0.133 ± 0.014	0.251 ± 0.039	0.192 ± 0.035	0.322 ± 0.0091	0.108 ± 0.015	0.124 ± 0.021	0.2397 ± 0.0019
YFLAMFIISGGV	0.478 ± 0.073	0.371 ± 0.032	0.435 ± 0.032	0.28 ± 0.034	0.4798 ± 0.0021	0.248 ± 0.011	0.263 ± 0.042	0.443 ± 0.031
YILPTPTVISLA	0.337 ± 0.029	0.262 ± 0.025	0.271 ± 0.006	0.249 ± 0.034	0.3667 ± 0.0033	0.211 ± 0.0069	0.256 ± 0.021	0.326 ± 0.01
YLGPHLRWARCV	0.254 ± 0.015	0.495 ± 0.018	0.715 ± 0.02	0.662 ± 0.027	0.768 ± 0.025	0.1228 ± 0.00053	0.125 ± 0.016	0.183 ± 0.033
YLSLPSSIFLCF	0.422 ± 0.085	0.501 ± 0.022	0.504 ± 0.0066	0.461 ± 0.018	0.59 ± 0.019	0.498 ± 0.024	0.38 ± 0.015	0.5422 ± 0.0047
YLTLAGFPLNLF	0.469 ± 0.041	0.666 ± 0.014	0.7399 ± 0.0022	0.649 ± 0.017	0.762 ± 0.0092	0.273 ± 0.0065	0.314 ± 0.017	0.531 ± 0.011
YNNKITRYRRDS	0.52 ± 0.082	0.654 ± 0.053	0.731 ± 0.034	0.661 ± 0.055	0.752 ± 0.0077	0.388 ± 0.012	0.375 ± 0.024	0.612 ± 0.0082
YRNRKMYCITNC	0.423 ± 0.014	0.682 ± 0.03	0.737 ± 0.017	0.636 ± 0.038	0.743 ± 0.018	0.207 ± 0.044	0.26 ± 0.017	0.51 ± 0.058
YTHRYFVRLFAV	0.3123 ± 0.0026	0.518 ± 0.047	0.708 ± 0.0076	0.504 ± 0.019	0.6558 ± 0.0057	0.206 ± 0.0073	0.2 ± 0.014	0.405 ± 0.0098
YVLVVSFLACVF	0.192 ± 0.012	0.0628 ± 0.013	0.172 ± 0.053	0.142 ± 0.03	0.266 ± 0.0094	0.104 ± 0.021	0.13 ± 0.014	0.234 ± 0.0088
YWIFCYFFWGGV	0.455 ± 0.037	0.392 ± 0.032	0.483 ± 0.0098	0.358 ± 0.032	0.518 ± 0.008	0.3153 ± 0.0014	0.35 ± 0.015	0.501 ± 0.02

Source: the supplement of paper PMC10724198
